{"source": "the supplement of paper PMC10724198", "key": {"[1]": {"tested_on": "Saccharomyces cerevisiae", "assay": "protein stability index of tFT-peptide fusion in wild type (PSI (0-1 scale)); higher = more stable (slower turnover)", "details": "genetic background: wild type"}, "[2]": {"tested_on": "Saccharomyces cerevisiae", "assay": "protein stability index of tFT-peptide fusion in deletion strain of DOA10 (PSI (0-1 scale)); higher = more stable (slower turnover)", "procedure": "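MPS profiling in S. cerevisiae of two library types built from selected 12-aa C-degron peptides (IN1, IN2, LN1, LN3, VN2, R1-R5, W1-W3, Atg1 and Rpa12 C-termini): saturation mutagenesis libraries and C-terminal +1 capping libraries (13 aa). Each peptide is fused to the C-terminus of a sfGFP-mCherry timer, after a GGGS linker. Cells are FACS-sorted into 8 mCherry/sfGFP bins and sequenced. PSI runs from 0 (unstable) to 1 (stable), measured once in wild type and in the das1Δ or doa10Δ background.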"}}}
{"sequence": "GLYMCSVGCWFW", "values": [{"measurement": "protein stability index", "setting": "[1]", "result": 0.333}, {"measurement": "protein stability index", "setting": "[2]", "result": 0.453}]}
{"sequence": "CLVSLPILLFFW", "values": [{"measurement": "protein stability index", "setting": "[1]", "result": 0.252}, {"measurement": "protein stability index", "setting": "[2]", "result": 0.435}]}
